From PMC12654638

Molecular target: carotenoependymin-Purple1 (Cep-Purple1) (Haliclona sp. (purple sponge))
Test: SEC; HPLC size-exclusion chromatography (TSKgel G3000SWXL), calibrated with molecular standards; native protein estimated at 41-43 kDa against 23 kDa on SDS-PAGE

Substance: carotenoependymin-Purple1 (Cep-Purple1) (natural protein)
- stoichiometry N: 2
